Experimental data reported in US20250075006A1 (SHANDONG SIMCERE BIOPHARMACEUTICAL, published 2025).
Each block holds one binder with its values, some of them ahead of it.

Tests used:
[1] = target: T1, Human GUCY2C ECD (his-tagged human GUCY2C protein extracellular domain fusion protein) (human, UniProt P25092 24-430); assay: ELISA, plate coated with human GUCY2C-his, OD450
T1 construct: also called human GUCY2C-his; human GUCY2C-His
Procedure: To assay the binding activity of the humanized antibodies to human GUCY2C-his protein, a human GUCY2C-his protein was diluted with PBS to a final concentration of 2 μg/mL and then added to a 96-well ELISA plate at 50 μL/well. The plate was sealed with a plastic film and incubated at 4° C. overnight. The next day, the plate was washed 2 times with PBST, and a blocking buffer [PBS+2% (w/w) BSA] was added for blocking at room temperature for 2 h. The blocking buffer was discarded, and the plate was washed 2 times with PBST. An antibody to be tested or a control antibody diluted in a 1:3 gradient from a starting concentration of 100 nM was added at 50 μL/well. After incubation at 37° C. for 1 h, the plate was washed 3 times with PBST. A horseradish peroxidase (HRP)—labeled secondary antibody (purchased from Merck, Cat. No. AP113P) was added for incubation at 37° C. for 1 h, and the plate was washed 5 times with PBST. A TMB substrate was added at 50 µL/well for incubation at room temperature for 5-10 min, and then a stop solution (1.0 M HCl) was added at 50 μL/well. OD450 nm values were read using an ELISA plate reader (Multimode Plate Reader, EnSight, purchased from Perkin Elmer).

[2] = target: T1, Human GUCY2C ECD (his-tagged human …); assay: BLI Gator, antibody on anti-human Fc probe, antigen in solution
Procedure: (§1) Next, we measured the affinity of the recombinant antibody by another method, and the specific procedures were as follows: the binding strength of the antibody to the antigen was assayed by acquiring and analyzing the signal change of the reflection interference spectrum on the surface of the optical probe by using thin film interference technology. First, the probe was equilibrated for 300 s with HBS-T+pH 7.4 (0.02% tween) as the mobile phase. 2 μg/mL of the antibody to be tested was captured by an anti-human FC probe (purchased from ProbeLife, PL168-160003) for 240 s, and then antigen proteins with the concentration of 200 nM and diluted two-fold were injected. Kon for 300 s and Koff for 600 s. The association and dissociation processes of the antibody with the antigen protein were recorded, and finally, the chip was regenerated using Glycine pH 2.0 (purchased from GE), wherein the mobile phase was HBS-T+pH 7.4 (0.02% tween), the regeneration time was 5 s, and the assay temperature was 30° C. Finally, according to a 1:1 binding model, the data were analyzed, and the antibody-antigen binding kinetics parameters, including the association rate constant Ka, the dissociation rate constant Kd, the equilibrium dissociation constant KD, and the maximum binding signal Rmax, were fitted. The association rate (Ka), dissociation rate (Kd), and binding affinity (KD) of the recombinant antibodies with the human GUCY2C and monkey GUCY2C proteins are shown in Table 6.

[3] = target: T2, Cyno GUCY2C ECD (his-tagged cynomolgus monkey GUCY2C protein extracellular domain fusion protein) (cynomolgus monkey, UniProt P25092 24-430 (human entry)); assay: as above
T2 construct: also called monkey GUCY2C-his; monkey GUCY2C-His
T2 chain: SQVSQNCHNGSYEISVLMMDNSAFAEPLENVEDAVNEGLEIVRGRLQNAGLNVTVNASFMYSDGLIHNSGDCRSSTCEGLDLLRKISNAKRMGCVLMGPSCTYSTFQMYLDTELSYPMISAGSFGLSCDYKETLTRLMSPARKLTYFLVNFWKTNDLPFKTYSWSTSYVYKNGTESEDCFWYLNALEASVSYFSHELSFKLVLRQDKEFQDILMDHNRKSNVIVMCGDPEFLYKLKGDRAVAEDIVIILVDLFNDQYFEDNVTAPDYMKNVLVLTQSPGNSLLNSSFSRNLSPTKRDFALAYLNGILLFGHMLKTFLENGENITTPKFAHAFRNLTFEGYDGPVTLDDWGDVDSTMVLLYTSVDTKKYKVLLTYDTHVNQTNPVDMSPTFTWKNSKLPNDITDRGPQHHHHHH
Procedure: as §1

[4] = target: T3, Mouse GUCY2C ECD (his-tagged mouse GUCY2C protein extracellular domain fusion protein) (mouse, UniProt Q3UWA6 20-433); assay: ELISA, plate coated with mouse GUCY2C-his, OD450
T3 construct: also called murine GUCY2C-his; murine GUCY2C-His
T3 sequence: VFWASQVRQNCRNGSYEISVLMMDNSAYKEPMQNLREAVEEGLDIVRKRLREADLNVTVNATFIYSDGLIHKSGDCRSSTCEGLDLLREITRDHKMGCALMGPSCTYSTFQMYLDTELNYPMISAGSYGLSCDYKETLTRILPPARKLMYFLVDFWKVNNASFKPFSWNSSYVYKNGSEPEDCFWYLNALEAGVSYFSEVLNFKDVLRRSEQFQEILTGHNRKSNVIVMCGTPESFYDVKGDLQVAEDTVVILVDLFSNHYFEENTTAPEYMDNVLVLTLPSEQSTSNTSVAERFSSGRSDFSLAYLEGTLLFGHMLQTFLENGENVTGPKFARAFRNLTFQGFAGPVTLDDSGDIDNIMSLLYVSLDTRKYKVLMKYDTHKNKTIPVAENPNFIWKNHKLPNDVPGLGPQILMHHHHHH
Procedure: A human GUCY2C-his protein was diluted with PBS to a final concentration of 2 μg/mL and then added to a 96-well ELISA plate at 50 μL/well. The plate was sealed with a plastic film and incubated at 4° C. overnight. The next day, the plate was washed 2 times with PBST, and a blocking buffer [PBS+2% (w/w) BSA] was added for blocking at room temperature for 2 h. The blocking buffer was discarded, and the recombinant antibody and positive and negative control antibody with a starting concentration of 100 nM serially diluted by 3 folds were added at 50 μL/well. After incubation at 37° C. for 1 h, the plate was washed 3 times with PBST. A horseradish peroxidase (HRP)—labeled secondary antibody (purchased from Merck, Cat. No. AP113P) was added for incubation at 37° C. for 1 h, and the plate was washed 5 times with PBST. A TMB substrate was added at 50 μL/well for incubation at room temperature for 10 min, and then a stop solution (1.0 M HCl) was added at 50 μL/well. The OD450 nm values were read by an ELISA plate reader (Multimode Plate Reader, EnSight, purchased from Perkin Elmer).
The monkey GUCY2C-his and murine GUCY2C-his proteins were subjected to ELISA and data analysis according to the method described in Example 4.2. The recombinant antibodies Lab306-huFc, Lab322-huFc, and Lab323-huFc have a relatively good binding activity with the monkey GUCY2C-his protein. […]

T1 sequence (P25092 other isoform, or with tags, fused parts or gaps): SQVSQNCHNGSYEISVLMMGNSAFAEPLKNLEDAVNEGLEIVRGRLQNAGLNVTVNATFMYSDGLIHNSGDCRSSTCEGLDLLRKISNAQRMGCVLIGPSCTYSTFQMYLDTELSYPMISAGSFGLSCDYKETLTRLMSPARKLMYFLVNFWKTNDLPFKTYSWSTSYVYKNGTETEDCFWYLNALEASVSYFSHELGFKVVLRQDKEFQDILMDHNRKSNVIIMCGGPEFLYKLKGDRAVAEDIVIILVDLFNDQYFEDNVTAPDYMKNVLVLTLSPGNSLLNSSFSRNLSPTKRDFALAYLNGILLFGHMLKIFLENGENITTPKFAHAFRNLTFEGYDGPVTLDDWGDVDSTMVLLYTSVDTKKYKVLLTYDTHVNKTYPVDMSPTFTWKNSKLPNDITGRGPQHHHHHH

- EC50 (read off the curve) [1]: ~0.05 nM
- Kd [2]: 0.494 nM
- koff [2]: 0.000197 s⁻¹
- kon [2]: 400000 M⁻¹ s⁻¹
- Kd [3]: 0.256 nM
- koff [3]: 0.000138 s⁻¹
- kon [3]: 540000 M⁻¹ s⁻¹
- EC50 (read off the curve) [4]: ~0.05 nM
B1: PF1608-hIgG1 (antibody, V domains shown)
VH: EVQLVESGGGLVQPGGSLRLSCAASGFTFSSYWMHWVRQAPGKGLEWIGEIKPSNELTNVHEKFKDRFTISVDKAKNSAYLQMNSLRAEDTAVYYCTRTITTTEGYWFFDVWGQGTLVTVSS
VL: DIQLTQSPSSLSASVGDRVTITCRASESVDYYGSSLLQWYQQKPGKAPKLLIYAASKLASGVPSRFSGSGSGTDFTLTISSLQPEDFATYYCQQTRKAYTFGQGTKLEIKR
notes: also called PF1608-hlgG1; positive control antibody

- EC50 (read off the curve) [1]: ~0.04 nM
- Kd [2]: 1.14 nM
- koff [2]: 0.000448 s⁻¹
- kon [2]: 391000 M⁻¹ s⁻¹
- Kd [3]: 0.998 nM
- koff [3]: 0.000486 s⁻¹
- kon [3]: 487000 M⁻¹ s⁻¹
- binding result [4]: no binding (tested: 100 nM)
B2: 5F9-hIgG1 (antibody, V domains shown)
VH: QVQLQQWGAGLLKPSETLSLTCAVFGGSFSGYYWSWIRQPPGKGLEWIGEINHRGNTNDNPSLKSRVTISVDTSKNQFALKLSSVTAADTAVYYCARERGYTYGNFDHWGQGTLVTVSS
VL: EIVMTQSPATLSVSPGERATLSCRASQSVSRNLAWYQQKPGQAPRLLIYGASTRATGIPARFSGSGSGTEFTLTIGSLQSEDFAVYYCQQYKTWPRTFGQGTNVEIKR
notes: also called positive control antibody
